In PMC12990809 one finds binding signal (z-score (mean of top ten 7-mers)) data, which are given here for ten substances.

Holding throughout (experiment): pulldown
For series [1], the target named is PABPC4 (Homo sapiens) (UniProt Q13310). The note with it: 20 nM protein, 1.5 uM RNA pool; 20 mM HEPES pH 7.8, 70 mM KCl, 10 mM NaCl, 10% glycerol, 2 mM DTT, 0.1 ug/uL BSA; 30 min, 4 C (protocol of this paper; not …); cited from earlier work.
Series [2] addresses hnrpkl (Tetraodon nigroviridis) (UniProt H3CQ29). The settings on record: 20 nM protein, 1.5 uM RNA pool; 20 mM HEPES pH 7.8, 70 mM KCl, 10 mM NaCl, 10% glycerol, 2 mM DTT, 0.1 ug/uL BSA; 30 min, 4 C.
Series [3] addresses T1, srsf3 (Xenopus tropicalis) (UniProt A0A8J0SH10).
T1 sequence: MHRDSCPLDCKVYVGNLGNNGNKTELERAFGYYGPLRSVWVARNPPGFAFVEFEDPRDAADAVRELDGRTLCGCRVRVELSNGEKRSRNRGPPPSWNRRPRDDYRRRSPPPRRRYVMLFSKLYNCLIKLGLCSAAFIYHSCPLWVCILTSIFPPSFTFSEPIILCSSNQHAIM
The settings on record: 20 nM protein, 1.5 uM RNA pool; 20 mM HEPES pH 7.8, 70 mM KCl, 10 mM NaCl, 10% glycerol, 2 mM DTT, 0.1 ug/uL BSA; 30 min, 4 C.

The target in series [4] is T2, RBM46 (Homo sapiens) (UniProt Q8TBY0).
T2 sequence: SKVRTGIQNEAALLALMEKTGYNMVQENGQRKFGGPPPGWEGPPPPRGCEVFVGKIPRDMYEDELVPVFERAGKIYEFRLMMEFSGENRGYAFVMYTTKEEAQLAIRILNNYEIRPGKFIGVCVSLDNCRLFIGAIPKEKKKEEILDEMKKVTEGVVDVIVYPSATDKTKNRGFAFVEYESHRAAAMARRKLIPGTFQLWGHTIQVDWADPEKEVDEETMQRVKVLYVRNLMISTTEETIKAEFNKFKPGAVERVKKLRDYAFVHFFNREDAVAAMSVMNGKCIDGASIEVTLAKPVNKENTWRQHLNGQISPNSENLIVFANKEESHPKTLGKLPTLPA
The note with it: 20 nM protein, 1.5 uM RNA pool; 20 mM HEPES pH 7.8, 70 mM KCl, 10 mM NaCl, 10% glycerol, 2 mM DTT, 0.1 ug/uL BSA; 30 min, 4 C (protocol of this paper; not …); cited from earlier work.

For series [5], the target named is T3, QKI (Homo sapiens) (UniProt Q96PU8).
T3 sequence: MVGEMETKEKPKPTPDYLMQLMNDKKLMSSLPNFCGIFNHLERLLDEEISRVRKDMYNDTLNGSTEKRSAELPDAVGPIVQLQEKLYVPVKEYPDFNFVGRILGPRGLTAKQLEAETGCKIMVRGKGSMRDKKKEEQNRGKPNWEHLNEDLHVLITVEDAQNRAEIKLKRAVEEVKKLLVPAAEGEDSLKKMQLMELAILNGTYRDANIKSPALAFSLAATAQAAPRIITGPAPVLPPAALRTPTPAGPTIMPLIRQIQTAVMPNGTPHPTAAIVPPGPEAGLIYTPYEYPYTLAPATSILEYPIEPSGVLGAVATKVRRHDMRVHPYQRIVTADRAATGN
The note with it: 20 nM protein, 1.5 uM RNA pool; 20 mM HEPES pH 7.8, 70 mM KCl, 10 mM NaCl, 10% glycerol, 2 mM DTT, 0.1 ug/uL BSA; 30 min, 4 C (protocol of this paper; not …); cited from earlier work.

Series [6] has as its target T4, RBM3 (Homo sapiens) (UniProt P98179).
T4 sequence: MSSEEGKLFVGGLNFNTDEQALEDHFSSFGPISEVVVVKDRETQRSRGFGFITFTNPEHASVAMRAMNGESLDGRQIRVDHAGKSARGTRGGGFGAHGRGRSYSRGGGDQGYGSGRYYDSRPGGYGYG
The note with it: 20 nM protein, 1.5 uM RNA pool; 20 mM HEPES pH 7.8, 70 mM KCl, 10 mM NaCl, 10% glycerol, 2 mM DTT, 0.1 ug/uL BSA; 30 min, 4 C (protocol of this paper; not …); cited from earlier work.

Series [7] deals with T5, RBM41 (Homo sapiens) (UniProt Q96IZ5).
T5 sequence: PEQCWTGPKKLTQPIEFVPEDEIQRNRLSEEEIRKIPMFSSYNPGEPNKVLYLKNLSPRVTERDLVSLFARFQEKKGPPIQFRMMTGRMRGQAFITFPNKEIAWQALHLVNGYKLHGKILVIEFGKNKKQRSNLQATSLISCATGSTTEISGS
The settings on record: 20 nM protein, 1.5 uM RNA pool; 20 mM HEPES pH 7.8, 70 mM KCl, 10 mM NaCl, 10% glycerol, 2 mM DTT, 0.1 ug/uL BSA; 30 min, 4 C (protocol of this paper; not …); cited from earlier work.

Series [8] deals with T6, NAB2 (Saccharomyces cerevisiae) (UniProt P32505).
T6 sequence: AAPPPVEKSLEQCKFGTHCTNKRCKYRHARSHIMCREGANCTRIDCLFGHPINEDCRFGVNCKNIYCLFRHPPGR
The note with it: 20 nM protein, 1.5 uM RNA pool; 20 mM HEPES pH 7.8, 70 mM KCl, 10 mM NaCl, 10% glycerol, 2 mM DTT, 0.1 ug/uL BSA; 30 min, 4 C (protocol of this paper; not …); cited from earlier work.

The target of series [9] is T7, RBM4 (Homo sapiens) (UniProt Q9BWF3).
T7 sequence: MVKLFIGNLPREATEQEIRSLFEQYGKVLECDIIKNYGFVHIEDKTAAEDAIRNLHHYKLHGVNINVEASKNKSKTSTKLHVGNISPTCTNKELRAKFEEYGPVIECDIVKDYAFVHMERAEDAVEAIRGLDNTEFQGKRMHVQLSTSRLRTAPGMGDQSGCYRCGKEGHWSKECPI
The settings on record: 20 nM protein, 1.5 uM RNA pool; 20 mM HEPES pH 7.8, 70 mM KCl, 10 mM NaCl, 10% glycerol, 2 mM DTT, 0.1 ug/uL BSA; 30 min, 4 C (protocol of this paper; not …); cited from earlier work.

Series [10] deals with RBM5 (Homo sapiens) (UniProt P52756). The note with it: 20 nM protein, 1.5 uM RNA pool; 20 mM HEPES pH 7.8, 70 mM KCl, 10 mM NaCl, 10% glycerol, 2 mM DTT, 0.1 ug/uL BSA; 30 min, 4 C (protocol of this paper; not …); cited from earlier work.
Chain of RBM5 (Homo sapiens) (P52756 1-546): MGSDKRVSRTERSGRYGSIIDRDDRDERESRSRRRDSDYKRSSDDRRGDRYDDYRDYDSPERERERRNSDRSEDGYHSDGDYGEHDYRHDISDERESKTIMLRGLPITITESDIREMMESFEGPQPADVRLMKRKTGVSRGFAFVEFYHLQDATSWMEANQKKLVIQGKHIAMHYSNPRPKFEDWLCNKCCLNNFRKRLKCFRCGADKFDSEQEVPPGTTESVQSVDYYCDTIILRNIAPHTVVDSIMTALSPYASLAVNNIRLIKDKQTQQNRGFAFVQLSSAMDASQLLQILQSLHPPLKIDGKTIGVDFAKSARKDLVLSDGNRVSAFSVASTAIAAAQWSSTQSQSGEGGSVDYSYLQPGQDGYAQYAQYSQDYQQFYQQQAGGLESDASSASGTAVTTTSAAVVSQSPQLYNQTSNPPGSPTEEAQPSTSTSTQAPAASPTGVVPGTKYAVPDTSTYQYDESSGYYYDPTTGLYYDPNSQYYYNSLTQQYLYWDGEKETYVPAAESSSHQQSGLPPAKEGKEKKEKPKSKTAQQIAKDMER

Chain of hnrpkl (Tetraodon nigroviridis) (H3CQ29 entry or part of it): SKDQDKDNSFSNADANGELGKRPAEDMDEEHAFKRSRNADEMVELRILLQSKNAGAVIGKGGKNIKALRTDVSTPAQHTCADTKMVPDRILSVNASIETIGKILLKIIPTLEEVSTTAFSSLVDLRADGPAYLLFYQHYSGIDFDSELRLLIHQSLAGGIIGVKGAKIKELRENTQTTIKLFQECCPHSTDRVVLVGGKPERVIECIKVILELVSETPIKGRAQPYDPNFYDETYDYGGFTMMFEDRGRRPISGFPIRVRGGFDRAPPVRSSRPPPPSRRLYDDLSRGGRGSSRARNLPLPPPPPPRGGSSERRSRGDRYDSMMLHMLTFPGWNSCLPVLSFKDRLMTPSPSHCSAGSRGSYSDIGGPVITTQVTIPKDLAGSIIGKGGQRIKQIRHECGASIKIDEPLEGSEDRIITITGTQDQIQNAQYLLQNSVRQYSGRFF
Chain of PABPC4 (Homo sapiens) (Q13310 1-414): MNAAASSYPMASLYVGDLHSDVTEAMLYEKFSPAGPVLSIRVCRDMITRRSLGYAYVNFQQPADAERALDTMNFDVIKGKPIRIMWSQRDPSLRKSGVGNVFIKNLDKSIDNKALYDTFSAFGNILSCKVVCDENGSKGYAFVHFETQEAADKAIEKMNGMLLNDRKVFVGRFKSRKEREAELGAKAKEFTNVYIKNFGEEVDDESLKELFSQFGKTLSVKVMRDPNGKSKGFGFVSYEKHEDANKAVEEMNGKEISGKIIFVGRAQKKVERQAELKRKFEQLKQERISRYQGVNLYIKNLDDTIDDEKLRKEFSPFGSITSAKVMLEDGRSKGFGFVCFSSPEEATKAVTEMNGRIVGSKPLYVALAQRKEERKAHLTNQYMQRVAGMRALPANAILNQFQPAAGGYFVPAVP

With AAAAAA [RNAcompete motif RNCMPT00043], the binding signal (z-score (mean of top ten 7-mers)) in [1] was 12.2.

With AAACCCAA [RNAcompete motif RNCMPT01679], the binding signal (z-score (mean of top ten 7-mers)) in series [2] is 6.12.

Substance AACAAC [RNAcompete motif RNCMPT01680] registered a binding signal (z-score (mean of top ten 7-mers)) in series [3] of 9.74. Regarding AAUCAA [RNAcompete motif RNCMPT00054], the binding signal (z-score (mean of top ten 7-mers)) in series [4] is 8.4. For ACUAACC [RNAcompete motif RNCMPT00047], the binding signal (z-score (mean of top ten 7-mers)) in series [5] is 6.41.

Consider AGAUAC [RNAcompete motif RNCMPT00050], for which the binding signal (z-score (mean of top ten 7-mers)) in series [6] was 7.1.

On to AUACAU [RNAcompete motif RNCMPT00053], for which the binding signal (z-score (mean of top ten 7-mers)) in [7] was 10.7.

On to CCUCU [RNAcompete motif RNCMPT00042], for which the binding signal (z-score (mean of top ten 7-mers)) in [8] was 6.1.

Turning to CGCGCG [RNAcompete motif RNCMPT00113], the binding signal (z-score (mean of top ten 7-mers)) in series [9] was 17.7. Turning to GAAGGNA [RNAcompete motif RNCMPT00055], the binding signal (z-score (mean of top ten 7-mers)) in [10] was 6.04.
